The values that follow come from FireProtDB (doi:10.1007/s00792-015-0748-z).

Sequences and labels used below:
B1: L-asparaginase, Q8TZE8 (parent)
chain: MKILLIGMGGTIASVKGENGYEASLSVKEVLDIAGIKDCEDCDFLDLKNVDSTLIQPEDWVDLAETLYKNVKKYDGIIVTHGTDTLAYTSSMISFMLRNPPIPIVFTGSMIPATEENSDAPLNLQTAIKFATSGIRGVYVAFNGKVMLGVRTSKVRTMSRDAFESINYPIIAELRGEDLVVNFIPKFNNGEVTLDLRHDPKVLVIKLIPGLSGDIFRAAVELGYRGIVIEGYGAGGIPYRGSDLLQTIEELSKEIPIVMTTQAMYDGVDLTRYKVGRLALRAGVIPAGDMTKEATVTKLMWILGHTNNVEEIKVLMRKNLVGELRD

In this data set the parent is B1. As to conditions: Pyrococcus furiosus (strain ATCC 43587 / DSM 3638 / JCM 8422 / Vc1); pH 8; 60 °C; GdnHCl; Fluorescence; Tris; NaCl; transition: 2; reversible: yes; structure 4Q0M; whole UniProt chain shown.

Turning to MKILLIGMGGTIASVKGENGYEASLSVKEVLDIAGIKDCEDCDFLDLKNVDSTLIQPEDFVDLAETLYKNVKKYDGIIVTHGTDTLAYTSSMISFMLRNPPIPIVFTGSMIPATEENSDAPLNLQTAIKFATSGIRGVYVAFNGKVMLGVRTSKVRTMSRDAFESINYPIIAELRGEDLVVNFIPKFNNGEVTLDLRHDPKVLVIKLIPGLSGDIFRAAVELGYRGIVIEGYGAGGIPYRGSDLLQTIEELSKEIPIVMTTQAMYDGVDLTRYKVGRLALRAGVIPAGDMTKEATVTKLMWILGHTNNVEEIKVLMRKNLVGELRD [W60F], the denaturant m value was 4.23 kcal/mol/M, the “denaturant midpoint (higher = more stable)” value was 2.82 M and the unfolding free energy turned out to be 11.9 kcal/mol.

Turning to MKILLIGMGGTIASVKGENGYEASLSVKEVLDIAGIKDCEDCDFLDLKNVDSTLIQPEDWVDLAETLYKNVKKYDGIIVTHGTDTLAYTSSMISFMLRNPPIPIVFTGSMIPATEENSDAPLNLQTAIKFATSGIRGVYVAFNGKVMLGVRTSKVRTMSRDAFESINYPIIAELRGEDLVVNFIPKFNNGEVTLDLRHDPKVLVIKLIPGLSGDIFRAAVELGYRGIVIEGYGAGGIPYRGSDLLQTIEELSKEIPIVMTTQAMYDGVDLTRYKVGRLALRAGVIPAGDMTKEATVTKLMFILGHTNNVEEIKVLMRKNLVGELRD [W301F], the “ddG of mutation (higher = less stable)” value was -3.98 kcal/mol, the denaturant m value amounted to 6.21 kcal/mol/M, the “denaturant midpoint (higher = more stable)” value turned out to be 3.18 M and the unfolding free energy was 19.7 kcal/mol.
